Data from article PMC5053661, “Human papillomavirus oncogenic E6 protein regulates human β-defensin 3 (hBD3) expression via the tumor suppressor protein p53”.

B1: hBD3 promoter -1339 p53 probe (dsDNA)
DNA 1: TGACTGTCTGCCCATCTACCTGGCCCTACAT
DNA 2: ATGTAGGGCCAGGTAGATGGGCAGACAGTCA
B2: hBD3 -1339 mutant probe (dsDNA)
DNA 1: TGACTGTCGACCCATCTACCTGGCCCTAAATTG
DNA 2: CAATTTAGGGCCAGGTAGATGGGTCGACAGTCA

Biological target: p53 (UniProt P04637 1-393)
Assay: EMSA; 100 ng p53, 100 nM probe; EMSA: 100 ng recombinant p53, 100 nM annealed biotin probe; binding buffer, salt, pH and temperature not given (ref 63)
Details: protein: commercial, chain copies: 4, label: 3'-biotin

p53, sequence (P04637 whole entry): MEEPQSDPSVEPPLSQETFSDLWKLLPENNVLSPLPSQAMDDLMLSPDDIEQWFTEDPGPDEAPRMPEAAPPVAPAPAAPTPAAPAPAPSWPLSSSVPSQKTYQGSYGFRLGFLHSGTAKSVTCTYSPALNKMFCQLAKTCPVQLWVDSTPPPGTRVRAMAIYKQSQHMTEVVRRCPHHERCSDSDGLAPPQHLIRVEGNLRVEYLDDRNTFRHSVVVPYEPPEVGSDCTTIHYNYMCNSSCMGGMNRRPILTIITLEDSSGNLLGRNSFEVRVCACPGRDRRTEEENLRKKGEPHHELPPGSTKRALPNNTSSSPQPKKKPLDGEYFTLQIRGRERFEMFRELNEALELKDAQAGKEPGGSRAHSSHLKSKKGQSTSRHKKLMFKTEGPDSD

Binder | binding result
B1 | binds
B2 | no binding
